B1: SEQ ID NO: 121: Haematobacter missouriensis aminotransferase (protein, listed as Haematobacter missouriensis)
chain: MMDTLPNSLAARDVKYLLHPNTNARMHEQNGPMVISRGDGIHVYDDAGKEYIEALAGLWSVAVGFGEKRLVEAAQRQMSTLPYYHIFSSKSHEPAIDLAETLVKMTPEHLTRVFYTNSGSEANDTVVKMIWYYNNVLGRPEKKKIIARKNGYHGITVASASLTGLPINHKDFDLPLPQMKHVTTPHFYRFGEEGETEEQFSDRLAQEIEDMILAEGPETVAAFIGEPVIGAGGVLVPPKGYWEKVQKVLKKYDILLVADEVIMGFGRSGKTFACEYYGIKPDFLVLSKQITSSYQPLAAIMLTDAIYQAIADGSQKNGAFGHGYTASGHPVAMAVAIENLKIIEERGLVANAEKVGAYMQKRLREFADHPLVGEVRGVGLIAAVELVADKATKAKFDPVGKAGAIYTRKSAENGLINRAIGDTICFCPPLIITEAQVDEMIARFSKSLDETAAELKG
B2: SEQ ID NO: 173: Methylobacterium aquaticum aminotransferase (protein, listed as Methylobacterium aquaticum)
chain: MLSNLATRDVETLIHPYTNLAAFRQTGPLVLERGHGVWVYDTDGRPYLEGMAGLWCTALGYSNEELVEAAREQMSRLPFTHLFSGRSHDPAIELAETLKELAPIPVSKVFFTSSGSEANDTQVKLTWYLNNALGRPQKKKIIGRHKGYHGVTVASASLTGLTANHADWDLPLPGFLHAACPHHYRGAEAGETEEAYSARLATELEEMILREGPETVAAFIAEPVMGAGGAIVPPKGYFAAIEPVLARYDVRFIADEVICGFGRLGTWFGSEALGMKPHSLSFAKALTSAYMPLGGVTVDETLYQAMQDQSRKIGTFGHGTTYSGHPVASAVALKTIEIYRRDKIIEGAAEKAPHFQRRLSALEEHPLVGEAKGMGLIGGLEIVADKATKRQYDPKAGVAARCVAFAQEEGLIVRFLTGDRVAVCPPLVIRPDEIDTLFDRLGTALDRTQAWIREQGLTAA
B3: SEQ ID NO: 176: Firmicutes bacterium CAG:24 aminotransferase (protein)
chain: MGELMQQYIDEAEQDLLHTYNRYQVVLDRGDGVSLYDIEGKRYLDFVAGIAVFALGYHNAEYNDALKAQIDKVIHTSNYYYNVPAVEAARHLKKVSRMDRVFFTNSGAEAIEGAIKAARKYAYLKDGTTDHEIIAMNHSFHGRTMGALSVTGNPHYREAFEPGIGNIRFADLNDFDSVLACVNDKTCAILLETVQGEGGIYPVQEDFLKKVRALCDEKDILLILDEIQCGMGRTGYWYAWQKYGVKPDIMTTAKALGCGVPVGAFLMTEKVGQHSLTAGDHGTTYGGNPLACAAVAKVLDLFEENNILEHVREVSAYLEEKLDSLAAKYDFITDRRGMGLMQGLVFDRPVAPVINAALENGLILINAGTNIIRFVPPLVITDADVDEMIEILDSCLKTFQEQNA
modifications: Firmicutes bacterium CAG:24
notes: Firmicutes bacterium CAG:24 aminotransferase
B4: SEQ ID NO: 174: Candida tenuis aminotransferase (protein, listed as Candida tenuis)
chain: MNSSKSQICLATERQYSAKNYTPMPVVFKKAIGCKVWDVDDNEYLDFGGSYCATNQGHSHPKIVQALIDQAQICALPSRAFTHNLYGDYIKFVCQYFDFEKALPLNGGSEAIEFAIKLARAWGYTKKGISQNEAIVLFAANNYHGRTLGSTSASTTPGARKNYGPFLPKVGPYYGSEGKFIRYNHIEDIEEAFKTDGPNIAAIVLESLQGEAGIYVPKDGYLQQVKRLCEEYNILYIADEVQMGAGRTGTLLSCEQDGIKPDVLVVAKSIGGGVYPTSLVLSSGEIMDCIEPNSHGATFSGSPLSCATSKVALEVLIEDNMIDNAKHLGKIMLDGLNSIREKSSIITDVRGRGLMAGFDIDESQLNGKKVWHVCMLLRSKGIICKMVHAKTIRWAPALVITEEELRFGLRMLEQTINEITALEIADIPDAVTFDYLRY
modifications: Candida tenuis (strain ATCC 10573 / BCRC 21748 / CBS 615 / JCM 9827 / NBRC 10315 / NRRL Y-1498 / VKM Y-70)
notes: Candida tenuis aminotransferase
B5: SEQ ID NO: 179: Sphingobacterium spiritivorum ATCC 33861 aminotransferase (protein)
chain: MIKEATVHERLAKHILADGLPLVIDLEKSHDSYIVDIEGNEYLDMFSMFASSPIGYNHPHIVKNSDLLKKVAINKLALSDIYPREFADFVDTFERVAIPAELSYCFFIDGGALAVENALKAAFDWKTRLNISRGIQQEASEVIHFKQAFHGRTGYTLSLTNTKDPRKYMYFPKFDWPRITNPKLHFPLTEESVTETIKAEQQAIQEIEAAIAKNPDAIACLILEPIQAEGGDNHFRTEFFQELRRICDDHDILLILDEVQTGLALTGKMWAYEHYGIIPDLISFGKKSQVCGVLAHREKFDRVEKHVFKESSRINSTFGGNLVDMMRFKLILEVIEQENLVQQAESLGEYLLEKLEQLAKRHSQLSNVRGKGLLASFDFQTEQQRDEFVKRAMNNKLLILGCGDKSIRFRPHLTVTVEQLDKALALVEKSL
modifications: Sphingobacterium spiritivorum ATCC 33861
notes: Sphingobacterium spiritivorum ATCC 33861 aminotransferase
B6: SEQ ID NO: 178: Defluviimonas sp. 20V17 aminotransferase (protein)
chain: MNELSNSVAHADITTILHPYTDARMHEQKGPLVIEKGDGVHVIDQSGKRYIEAMSGLWSVAVGFSQTRLRDAAAAQMEKLPYYHTFASKSHEPSVRLAEKLVEMTPENLTRVFYTSSGSEANDTVIKLVWYMNNALGRPQKKKFLARNKAYHGITIASGSLTGLPGNHRDFDLPAIPVVHLTCPHLYRFGQEGETEAQFCARLLKEAEDTILAEGPETIAAFIGEPVMGAGGVMVPPEGYWQGIEALCRKYDILLVSDEVINGFGRTGARWGCEKMGFTPDILVTSKQLTSSYMPLAAIVFSEDIYNVIADNTHKLGGFGHGFTASGHPVACAVGLENLAIIEEQGLMENAAKMGERLQAGLAKLADHPLVGEVRGTGLIAAVELVADKATKRPFDPVGKVGGKVFEYGHEEGVIFRNLGDSIAVCPPLIVTEHDVDEIVRLMGIAIDRAADWARAEGLVA
modifications: Defluviimonas sp. 20V17
notes: Defluviimonas sp; 20V17 aminotransferase
B7: SEQ ID NO: 177: Pseudooceanicola batsensis aminotransferase (protein, listed as Pseudooceanicola batsensis)
chain: MKDDNFLKEHNARALWHPMGAPGDSMANPPVIISSASGSRIRDIDGHETVDGVGGLWCANLGYSNDAVKEAIAKQLHELPYYSAFAGCTNPSAIEASVAVQEFFAEDGIGRVFFTSGGSDSVDTCLRLARQYHQVKGAPTRTKFLSLKKGYHGTHFGGASVNGNNRFRIGYEPLLPGCFHLTAPHAYRNPYDEADPAALARKIAAEMVDEIEFQGPETIAAFIMEPILGAGGVIVPDPTFMGLMREICTRYGILMIADEVICGFGRTGDWTGSRHWGVRPDMMSVAKGITSAYFPVGAALISEEVAEVFEKDTSGAAAIWHGYTYSAHPVGAAAVTACLSETLRLDTRTNAAARGTQLYQGLLGLKEKYDIIGDVRGGHGLMTAIEFVTDRAKKTPMDAATVKTIHSRVYEAGAMVRPAPPNLLMSPPLIITEAEVRTIIEALDTAIGSV
modifications: Pseudooceanicola batsensis (strain ATCC BAA-863 / DSM 15984 / KCTC 12145 / HTCC2597)
notes: Pseudooceanicola batsensis aminotransferase
B8: SEQ ID NO: 175: Tepidicaulis marinus aminotransferase (protein, listed as Tepidicaulis marinus)
chain: MSQTAQISNQTRRWQEMDARHHVHPFSDQAALAKKGARVITHAEGVYLYDSEGHKIIDGMAGLWCVNVGYGRSELAEAGYKALKELPYYNTFFQTTNPYTAELGERLAEVTPDGLDRFFFANSGSEANDSMVKIIRYYWSLQGKPEKKVFISRKQAYHGVTMTAASLSGISAMHPQAGLPLPNHAHIDFPYWYGMGGDMDPNEFGVHIAMKLEEKILEIGAENVAAFVAEPVQGAGGLIIPPDSYWPVIQEICHKYDILLHADEVICGFGRTGNWFGSHTYGIVPDTMAMAKGMTSGYQPLSAVALGPRVGDALHNSGEEWSHGFTYSGHPVASAVALANLDVLQKDKLVEKAGGETGEHFLKHLHALADHPIVGETRGVGLLGAIELVKDKKTRERFEGDTGGLCRDHCFENDLIMRAIGNTMVLSPPLSITKAELDELFTLARKALDATAKDLGAM
B9: SEQ ID NO: 180: Ramlibacter tataouinensis aminotransferase (protein, listed as Ramlibacter tataouinensis)
chain: MAYNDFDTGNHWLPFTPNRHFKKEPRVFVAADGMHFTTHDGRQVVDGISSLWCVGAGHNRKPINEAIKKQLDTLDYATAFNAANDQAFLAAQKIAAMAPGDLNKVLFCNSGSEAADTSMKVALAYHRARGEGHRNIFIGRERGYHGVGFGGMSVGGIPANRKVYGTALLPRVDHMRFIHDPANAYIHNQEPVSQEDYLLELEQRILPLHSPENVAAIIVEPVAGSAGWYLPPKGYLKRLREICDKHGILLIFDEVITGFGRMGTSFGADFYGVVPDMLNFAKCVTNGVIPLGGVICRDKLYDTMMKTDAPEHVIEFFHGYTYSGHPVSCAAAIATLDLYQKEGLFPRAGEMGKVLGDAFHSTFKGLPNVVGIRSLGLAAAVELAPIAGLPGKRAYDIYLDCFRKGALVRPAGDVVVIAPPYVVEKSHIDQLVNTLADSIRQHA
modifications: Ramlibacter tataouinensis (strain ATCC BAA-407 / DSM 14655 / LMG 21543 / TTB310)
notes: Ramlibacter tataouinensis aminotransferase

The nature of this assay: In vivo aminotransferase activity screening, 7-aminoheptanoate by LC-MS. It counts as cell-based, Escherichia coli. The conditions noted are these: in vivo conversion of 7-oxoheptanoate to 7-aminoheptanoate, 120 aminotransferases screened. The protocol:
A 165-member aminotransferase library from Twist on IPTG-inducible T7- pUC expression vectors was co-transformed into T7 Express lysY/Iq with a constitutive expression pJ23150-derived plasmid bearing the phosphopantetheinyl transferase sfp from Bacillus subtilis, CAR_Srot from Invista and BioC from Serratia marcescens (UniprotKB Accession No. P36571 (SEQ ID NO: 165)). The resulting strains were incubated in 0.5 ml of rich media (terrific broth or LB containing 8% glycerol) supplemented with 0.4 mM IPTG and received 1 g/L monomethyl heptanedioate, 1 g/L heptanedioate, or no organic acid addition, depending on the experiment. Following incubation overnight at 37° C. in a shaking incubator, cells were pelleted and the supernatants were analyzed using LC-MS for 7-aminoheptanoate or monomethyl 7-aminoheptanoate. A Vibrio fluvialis aminotransferase (UniProtKB Accession No. F2XBU9 (SEQ ID NO: 128)) was used as a positive control.
As for B1, the “7-aminoheptanoate yield compared to the positive control (F2XBU9)” value is reported as “higher 7-aminoheptanoate yields”.
For B2, the “7-aminoheptanoate yield compared to the positive control (F2XBU9)” value is “higher 7-aminoheptanoate yields”.
On to B3, for which the “7-aminoheptanoate yield compared to the positive control (F2XBU9)” value is “higher 7-aminoheptanoate yields”.
Turning to B4, the “7-aminoheptanoate yield compared to the positive control (F2XBU9)” value is given as “higher 7-aminoheptanoate yields”.
Regarding B5, the “7-aminoheptanoate yield compared to the positive control (F2XBU9)” value is given as “higher 7-aminoheptanoate yields”.
For the molecule B6, the “7-aminoheptanoate yield compared to the positive control (F2XBU9)” value is on record as “higher 7-aminoheptanoate yields”.
Take B7: the “7-aminoheptanoate yield compared to the positive control (F2XBU9)” value is given as “higher 7-aminoheptanoate yields”.
In the case of B8, the “7-aminoheptanoate yield compared to the positive control (F2XBU9)” value is on record as “higher 7-aminoheptanoate yields”.
Under B9 stands “higher 7-aminoheptanoate yields”.

The values above are taken from US10801046B2, “Methods and materials for biosynthesizing multifunctional, multivariate molecules via carbon chain modification” (INVISTA NORTH AMERICA S.A.R.L., priority 2016, dated 2020).
